The values that follow come from PMC12607630 (2025).

Common to all, as to experiment: BLI
The target in experiment [1] is 6×His-ZapC^K94D (Escherichia coli, UniProt P75862 1-180, K94D).
For experiment [2], the target named is 6×His-ZapC^F30D (Escherichia coli, UniProt P75862 1-180, F30D).
Experiment [3] addresses T1, SUMO-FtsZ^316-370 (Escherichia coli, UniProt P0A9A6 316-370).
T1 chain: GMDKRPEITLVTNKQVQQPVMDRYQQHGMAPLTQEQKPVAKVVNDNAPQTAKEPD

The target of experiment [4] is T2, SUMO-FtsZ^370-383 (Escherichia coli, UniProt P0A9A6 370-383).
T2 chain: DYLDIPAFLRKQAD

B1: FtsZ (wild-type, untagged) (natural protein)
chain: MFEPMELTNDAVIKVIGVGGGGGNAVEHMVRERIEGVEFFAVNTDAQALRKTAVGQTIQIGSGITKGLGAGANPEVGRNAADEDRDALRAALEGADMVFIAAGMGGGTGTGAAPVVAEVAKDLGILTVAVVTKPFNFEGKKRMAFAEQGITELSKHVDSLITIPNDKLLKVLGRGISLLDAFGAANDVLKGAVQGIAELITRPGLMNVDFADVRTVMSEMGYAMMGSGVASGEDRAEEAAEMAISSPLLEDIDLSGARGVLVNITAGFDLRLDEFETVGNTIRAFASDNATVVIGTSLDPDMNDELRVTVVATGIGMDKRPEITLVTNKQVQQPVMDRYQQHGMAPLTQEQKPVAKVVNDNAPQTAKEPDYLDIPAFLRKQAD
On to B1, for which the Kd in experiment [1] was determined as 2.1 µM; in experiment [2], 2.97 µM.

B2: ZapC (untagged) (natural protein)
chain: not shown
For the molecule B2, the Kd in experiment [3] amounted to 50.7 µM; in experiment [4] it was 11.4 µM.
